Results on two molecules are retold here after patent US20240417475A1 (AFFIMED, published 2024).

The target of experiment [1] is T1, human FOLR1 endogenously expressed on tumor cell lines (human, UniProt P15328 25-234).
T1 construct: whole, on cells; also called FOLR1-positive tumor cell lines; FOLR1+ target cells
Put plainly: flow cytometry on IGROV-1 cells, 37 C, one-site fit of MFI, mean. The method, then: (§1) Cells were collected and centrifuged at 400×g, 5 min, 4° C. Cell pellets were resuspended in FACS buffer (PBS (Invitrogen, cat.: 392-0434) containing 2% h.i. FCS (Invitrogen, cat.: 10500-064), and 0.1% sodium azide (Sigma, cat.: S8032)) at 1-5×10⁶ cells/mL. 100 μL/well of the cell suspension were transferred into U-shaped, 96-well micro plates (0.1-0.5×10⁶ cells per well), cells were pelleted at 400×g, 5 min, 4° C., and resuspended in 100 μL/well of serial dilutions of the indicated antibodies in FACS buffer. After 40-50 min incubation at 37° C., cells were washed 3-times with ice-cold FACS buffer. […] After the final incubation step, cells were washed 2-times with ice-cold FACS buffer, and the cell pellet was resuspended in 100 μL FACS buffer. Fluorescence intensities of >1×10⁴ viable cells were analyzed by flow cytometry and the median fluorescence intensity (MFI) was determined for each sample.
(§2) Equilibrium dissociation constants (KD) of antibody binding, mean and standard deviation (SD) were calculated by plotting MFI values and fitting a non-linear regression model for one-site binding to hyperbolic dose-response curves using GraphPad Prism for Windows (v9; GraphPad Software; La Jolla California USA).
(§3) Specific antibody binding capacity (SABC) as a marker for FOLR1 expression level on cells was determined on all tumor cell lines using QIFIKIT.
A general note: Flow cytometry measures light scatter and fluorescence of single cells or particles in a stream.

The target of experiment [2] is T1, human FOLR1 endogenously expressed on …. Description: flow cytometry on OVCAR-3 cells (FOLR1 medium) at 37 °C, FITC anti-human IgG detection. The protocol:
as §1

Experiment [3] has the same target. Put plainly: flow cytometry on OVCAR-3 cells, 37 C, one-site fit of MFI, mean. The protocol: as §1, §2, §3
Experiment [4] shares this target. Put plainly: flow cytometry on NCI-H2110 cells, 37 C, one-site fit of MFI, mean. The protocol:
as §1, §2, §3

Experiment [5] has as its target T2, human CD16A (158F) expressed on CHO cells (cAg_34) (human, UniProt P08637 17-254).
T2 construct: also called huCD16A-transfected CHO cells
Description: flow cytometry on huCD16A (158F)-transfected CHO cells (cAg_34), on ice, FITC goat anti-human IgG detection. The protocol: (§4) After washing in FACS buffer, cells were incubated in 50 μL FACS buffer without antibodies or with titrated antibodies starting at a concentration of 1000 nM followed by elven 3-fold serial dilutions for 40-50 min on ice in the dark. […] After washing, binding was measured by flow cytometry and mean fluorescence intensities (MFI) of cell samples were calculated and corrected for background staining using control cells stained with secondary antibodies only.

The target of experiment [6] is T3, human FOLR1-mFc_Avi-tag (sAg_303) (human, UniProt P15328 25-234, limits assumed).
T3 construct: also called human FOLR1 (sAg_303); recombinant human FOLR1
Description: ELISA, plate coated with human FOLR1-mFc_Avi-tag, anti-human Fab-HRP detection, A450. The protocol:
(§5) 96 well ELISA plates (F96 Maxisorp Immuno Plate, Nunc, cat: 442404) were coated overnight at 4° C. with 50 μL/well of 10 μg/mL human FOLR1-mFc_Avi-tag in DPBS. After overnight incubation plates were washed three times with PBST and blocked with Candor Blocking solution for 2 h at RT under mild agitation. […] After incubation with the secondary antibodies, the plate was washed five times with PBST and one time with PBS. Chromogenic substrate (1:1 mixture of TMB:TMBB, SeraCare cat: 5120-0048 and 5120-0037) was added and the reaction was stopped by addition of an equal volume of 0.5 M H₂SO₄ after sufficient color development. Absorbance at 450 nm was measured in an ELISA plate reader (Sunrise Absorbance Reader 901000833, Schoeller Instruments). The absorbance values were corrected by subtracting the background of the respective secondary antibody and fitted with a one site binding function (hyperbola) using GraphPad Prism (version 9.3.1. GraphPad Software, La Jolla California USA). KD is the concentration of ligand required to reach half-maximal binding.

In experiment [7] the target is T1, human FOLR1 endogenously expressed on …. Put plainly: flow cytometry on HCC-827 cells, 37 C, one-site fit of MFI, mean. The protocol: as §1, §2, §3
Experiment [8] deals with CD16A on in vitro differentiated human macrophages (human, UniProt P08637 17-254). Put plainly: cell-based or functional assay.
In experiment [9] the target is CD16A endogenously expressed on primary human NK cells (human, UniProt P08637 17-254). Description: flow cytometry on primary human NK cells at 37 °C, biotinylated antibody, streptavidin-FITC, without polyclonal human IgG. The method, then:
Frozen NK cells were thawed, and viability was determined with trypan blue (Sigma-Aldrich, cat.: T8154). Cells have been centrifuged at 400×g, 5 min, 4° C. Cell pellets were resuspended in FACS buffer PBS (Invitrogen, cat.: 392-0434) containing 2% h.i. FCS (Invitrogen, cat.: 10500-064), and 0.1% sodium azide (Sigma, cat.: S8032) at 2×10⁶ cells/mL. 100 μL/well of the cell suspension were transferred into U-shaped 96 well plates, cells were pelleted at 400×g, 5 min. 4° C., and resuspended in 50 μL/well of diluted antibody constructs. […] After 40-50 minutes' incubation at 37° C., cells were washed 3-times with ice-cold FACS buffer. […] After the final incubation step, cells were washed 2-times with ice-cold FACS buffer, and the cell pellet was resuspended in 50 μL FACS buffer. Fluorescence intensity of >1×10⁴ viable cells was analyzed by flow cytometry and the median fluorescence intensity (MFI) was determined for each sample.

For experiment [10], the target named is T1, human FOLR1 endogenously expressed on …. Description: flow cytometry on IGROV-1 cells (FOLR1 high) at 37 °C, FITC anti-human IgG detection. The protocol: as §1
The target of experiment [11] is T3, human FOLR1-mFc_Avi-tag (sAg_303). Description: ELISA, plate coated with human FOLR1-mFc_Avi-tag (sAg_303), one-site fit, mean of 3. The method, then:
as §5

In experiment [12] the target is T4, human CD16A (158V) expressed on CHO cells (cAg_35) (human, UniProt P08637 17-254).
T4 construct: also called huCD16A (158V)
Put plainly: flow cytometry on huCD16A (158V)-transfected CHO cells (printed sAg_35), on ice, FITC goat anti-human IgG detection. The protocol: as §4

The target of experiment [13] is T5, cynomolgus CD16 expressed on CHO cells (cAg_36) (cynomolgus, UniProt Q8SPW2 17-254).
T5 construct: whole, on cells; also called cyCD16
Description: flow cytometry on cyCD16-transfected CHO cells (cAg_36), on ice, FITC goat anti-human IgG detection. The protocol: as §4

In experiment [14] the target is T2, human CD16A (158F) expressed on CHO …. Put plainly: flow cytometry on huCD16A-transfected CHO cells (cAg_34), one-site fit of MFI, mean of 3. The method, then: (§6) To analyze binding of different antibody constructs to CHO cells transfected with human CD16A (cAg_34), relative to CD16 expression by flow cytometry, 1-2×10⁵ were resuspended in 100 μL FACS buffer (PBS (Invitrogen, cat.: 14190-169) containing 2% heat-inactivated FCS (Invitrogen, cat.: 10270-106), and 0.1% sodium azide (Roth, Karlsruhe, Germany, cat.: A1430.0100)) in round-bottom 96-well microtiter plates. After washing in FACS buffer, cells were incubated in 50 μL FACS buffer without antibodies or with titrated antibodies starting at a concentration of 100 μg/mL followed by ten 5-fold serial dilutions for 30 min on ice in the dark. […] After washing, binding was measured by flow cytometry and mean fluorescence intensities (MFI) of cell samples were calculated and corrected for background staining using control cells stained with secondary antibodies only.
(§7) Equilibrium dissociation constants (KD) of antibody binding were calculated by plotting MFI values and fitting a non-linear regression model for one-site binding to hyperbolic dose-response curves using GraphPad Prism.

The target is the same in experiment [15]. Description: flow cytometry on huCD16A-transfected CHO cells (cAg_34), one-site fit of MFI, experiment 1. The method, then:
as §6, §7

For experiment [16] the target is unchanged. Put plainly: flow cytometry on huCD16A-transfected CHO cells (cAg_34), one-site fit of MFI, experiment 3. The method, then:
as §6, §7

The target is the same in experiment [17]. Put plainly: flow cytometry on huCD16A-transfected CHO cells (cAg_34), one-site fit of MFI, experiment 2. The protocol: as §6, §7
The target is the same in experiment [18]. Put plainly: flow cytometry on huCD16A-transfected CHO cells, on ice, APC goat anti-human IgG detection. The method, then:
as §6

T1 sequence (P15328 25-234): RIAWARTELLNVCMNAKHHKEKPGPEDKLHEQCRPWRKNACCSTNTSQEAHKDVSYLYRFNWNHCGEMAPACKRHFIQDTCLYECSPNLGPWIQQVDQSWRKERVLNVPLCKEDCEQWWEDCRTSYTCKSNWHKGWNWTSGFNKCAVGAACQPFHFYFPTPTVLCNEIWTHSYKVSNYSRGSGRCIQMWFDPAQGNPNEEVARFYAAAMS
Sequence of CD16A on in vitro differentiated human macrophages (P08637 17-254 limits assumed): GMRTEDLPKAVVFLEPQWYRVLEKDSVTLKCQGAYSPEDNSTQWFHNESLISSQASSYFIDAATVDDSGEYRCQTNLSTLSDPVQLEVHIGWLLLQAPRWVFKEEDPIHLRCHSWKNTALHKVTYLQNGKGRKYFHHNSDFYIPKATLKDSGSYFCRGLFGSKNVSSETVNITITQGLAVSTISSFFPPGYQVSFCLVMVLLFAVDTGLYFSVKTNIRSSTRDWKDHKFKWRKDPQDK
T2 sequence (P08637 17-254 limits assumed): as above
T3 sequence (P15328 25-234 limits assumed): as the sequence (P15328 25-234) above
T5 sequence (Q8SPW2 17-254): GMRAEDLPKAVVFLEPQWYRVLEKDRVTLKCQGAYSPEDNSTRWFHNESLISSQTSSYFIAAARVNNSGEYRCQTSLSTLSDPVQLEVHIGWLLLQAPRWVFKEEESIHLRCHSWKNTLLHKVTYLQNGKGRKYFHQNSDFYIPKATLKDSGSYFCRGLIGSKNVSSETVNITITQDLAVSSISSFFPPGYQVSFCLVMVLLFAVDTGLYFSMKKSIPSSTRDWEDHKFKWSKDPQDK
Sequence of CD16A endogenously expressed on primary human NK cells (P08637 17-254 limits assumed): as the sequence (P08637 17-254 limits assumed) above
T4 sequence (P08637 17-254 F176V limits assumed): as the sequence (P08637 17-254 limits assumed) above, with F160V counted along it

B1: scFv-IgAb_162 (FOLR1×RSV) (bispecific antibody)
heavy: EVQLVESGGGVVQPGRSLRLSCSASGFTFSGYGLSWVRQAPGKGLEWVAMISSGGSYTYYADSVKGRFAISRDNAKNTLFLQMDSLRPEDTGVYFCARHGDDPAWFAYWGQGTPVTVSSASTKGPSVFPLAPSSKSTSGGTAALGCLVKDYFPEPVTVSWNSGALTSGVHTFPAVLQSSGLYSLSSVVTVPSSSLGTQTYICNVNHKPSNTKVDKKVEPKSCDKTHTCPPCPAPEFEGGPSVFLFPPKPKDTLMISRTPEVTCVVVAVSHEDPEVKFNWYVDGVEVHNAKTKPREEQYNSTYRVVSVLTVLHQDWLNGKEYKCKVSNKALPAPIEKTISKAKGQPREPQVYTLPPSREEMTKNQVSLTCLVKGFYPSDIAVEWESNGQPENNYKTTPPVLDSDGSFFLYSKLTVDKSRWQQGNVFSCSVMHEALHNHYTQKSLSLSPGGGGGSGGGGSQVTLRESGPALVKPTQTLTLTCTFSGFSLSTAGMSVGWIRQPPGKALEWLADIWWDDKKHYNPSLKDRLTISKDTSKNQVVLKVTNMDPADTATYYCARDMIFNFYFDVWGQGTTVTVSSGGSGGSGGSGGSGGSGGSDIQMTQSPSTLSASVGDRVTITCSASSRVGYMHWYQQKPGKAPKLLIYDTSKLASGVPSRFSGSGSGTEFTLTISSLQPDDFATYYCFQGSGYPFTFGGGTKVEIK
light: DIQLTQSPSSLSASVGDRVTITCSVSSSISSNNLHWYQQKPGKAPKPWIYGTSNLASGVPSRFSGSGSGTDYTFTISSLQPEDIATYYCQQWSSYPYMYTFGQGTKVEIKRTVAAPSVFIFPPSDEQLKSGTASVVCLLNNFYPREAKVQWKVDNALQSGNSQESVTEQDSKDSTYSLSSTLTLSKADYEKHKVYACEVTHQGLSSPVTKSFNRGEC
notes: also called FOLR1/RSV scFv-IgAb_162; FOLR1×RSV(NIST); copies: 2 + 2
As for B1, the Kd in experiment [1] is 5.2 nM; in experiment [3], 2.5 nM; in experiment [4], 3 nM; in experiment [7], 3.7 nM; in [11], 0.06 nM. Moreover, the entries for the “EC50 (read off the curve)” value in [2], in [6] and in experiment [10] were roughly 2 nM, roughly 0.05 nM and roughly 4 nM, respectively. In addition, the binding result in experiment [5] was “no binding (tested: 1000 nM)”; in [9] it was “no binding (tested: about 500 nM)”; in experiment [12] it was “no binding (tested: 1000 nM)”; in [13], “no binding (tested: 1000 nM)”. In addition, in experiment [8], the “Phagocytosis [%], 4 h ADCP, DK-MG cells” value turned out to be 0%. Also, the “Phagocytosis [%], 4 h ADCP, HCC-78 cells” value in [8] was determined as 0%. The “Phagocytosis [%], 4 h ADCP, HeLa cells” value in experiment [8] worked out at 0%.

B2: scFv-IgAb_268 (CD123-1×CD16a1) (bispecific antibody)
heavy: QVQLQQSGAEVKKPGASVKVSCKASGYTFTDYYMKWVKQSHGKSLEWMGDIIPSNGATFYNQKFKGKATLTVDRSTSTAYMELSSLRSEDTAVYYCARSHLLRASWFAYWGQGTLVTVSSASTKGPSVFPLAPSSKSTSGGTAALGCLVKDYFPEPVTVSWNSGALTSGVHTFPAVLQSSGLYSLSSVVTVPSSSLGTQTYICNVNHKPSNTKVDKKVEPKSCDKTHTCPPCPAPEFEGGPSVFLFPPKPKDTLMISRTPEVTCVVVAVSHEDPEVKFNWYVDGVEVHNAKTKPREEQYNSTYRVVSVLTVLHQDWLNGKEYKCKVSNKALPAPIEKTISKAKGQPREPQVYTLPPSREEMTKNQVSLTCLVKGFYPSDIAVEWESNGQPENNYKTTPPVLDSDGSFFLYSKLTVDKSRWQQGNVFSCSVMHEALHNHYTQKSLSLSPGGGGGSGGGGSGGGGSGGGGSGGGGSGGGGSSYELTQPLSVSVALGQTARITCGGNNIGSKSVHWYQQKPGQAPVLVIYQDKKRPSGIPERFSGSNSGNTATLTISRAQAGDEADYYCQVWDDYIVLFGCGTKLTVLGGSGGSGGSGGSGGSGGSGGSQVQLVQSGAEVKKPGASVKVSCKASGYTFTNYYMQWVRQAPGQCLEWMGIINPSGGVTSYAQKFQGRVTMTRDTSTSTVYMELSSLRSEDTAVYYCARGSAYYYDFADYWGQGTLVTVSS
light: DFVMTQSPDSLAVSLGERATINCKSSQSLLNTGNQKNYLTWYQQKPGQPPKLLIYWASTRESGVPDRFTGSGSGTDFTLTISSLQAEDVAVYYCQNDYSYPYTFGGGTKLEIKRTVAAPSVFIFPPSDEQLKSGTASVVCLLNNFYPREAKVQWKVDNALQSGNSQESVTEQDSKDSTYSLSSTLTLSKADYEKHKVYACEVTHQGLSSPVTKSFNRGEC
notes: also called AFM28; CD123×CD16A scFv-IgAb_268
On to B2, for which the Kd in experiment [14] was determined as 16.3 nM; in [15], 17.7 nM; in experiment [16], 23.5 nM; in experiment [17], 7.8 nM. Besides, in experiment [18], the “EC50 (read off the curve)” value is roughly 8 nM.

Broadly, the Kd is the free concentration of one partner at which half of the binding sites on the other are occupied at equilibrium, for simple one-to-one binding. What is called EC50 (read off the curve) is the midpoint of the concentration-response curve.
